± gives the uncertainty stated by the source.
Test: amyloid nucleation score (Sup35N fusion, yeast selection) (log enrichment); library NNK3; higher = more nucleation; inactive = no reads after selection
How it was run: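 Nucleation score is defined as the DiMSum log enrichment of output over input reads, with centring on the mode score of non-aggregating sequences. A minimum of 100 input reads was required for each sequence. Reads came from Illumina sequencing of plasmid inserts from psi-negative yeast expressing Sup35N fused to peptides of 20 random codons, induced with 100 μM copper sulfate for 24 hours and grown 7 days at 30°C on medium lacking adenine and uracil.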

Row | Substance | amyloid nucleation score
1 | GILIFTGYEDIFSCESDGSW | inactive
2 | DYMLLWNCVLVILFN | 0.323 ± 0.45
3 | LVTDGMRRSEICLMVYSN | inactive
4 | TKCNRALHMEVIIQATAVAR | inactive
5 | LSYLC | inactive
6 | LRFGHHMGYEWHLSRKVGSK | inactive
7 | FIDMLSYIAYIVLFFGASFV | inactive
8 | SGVYHRICSISLYQVSMR | inactive
9 | YTKMGTRLAFFWIRMMMRGR | inactive
10 | SKHIIFSFIGDLI | 0.654 ± 0.11
11 | GDHYGVEYSHPL | inactive
12 | DMQHPFDFKRQ | inactive
13 | ASRHSQMWIS | 0.129 ± 0.88
14 | PLMRTGEDISPERQRDGRGK | inactive
15 | DSYDLYIVD | inactive
16 | VESRRRLRVEVGFSRVDT | 0.077 ± 0.79
17 | NSKNFIMSISRLGYLASF | inactive
18 | IAGTIRVFYVFKAYADSPTW | inactive
19 | GWMQGVLSELTTTLVMESAR | inactive
20 | DKTCKVDWMSFTSHDF | inactive
21 | FVNQFLQKFMNLDKYIKLSH | inactive
22 | GCIDEDCGVLIIKFYNIRRY | 0.118 ± 0.59
23 | FKNLGNTFGLTKRVCV | inactive

Row | Substance | amyloid nucleation score
24 | AFISSKARTYKIRMMPVPTS | inactive
25 | KLSGTLFFGSKGFVFPPYAF | inactive
26 | TADDNVIRLAYFNVTTPLWF | inactive
27 | ECYVR | inactive
28 | AIYVFIRLLYVNIHDTTPVR | inactive
29 | RILVGLNCS | inactive
30 | YRLYDQLRGYRGLAYLTYVL | -0.187 ± 0.69
31 | YMDRFDK | inactive
32 | YPCYLLMGAVLSKPYLTSYV | inactive
33 | ADKRFI | inactive
34 | QFKYHYYNLCWSTSVFSFKN | 0.837 ± 0.22
35 | VILATAYLASNLYPVCSLIS | inactive
36 | GPTQIGNLMVTHKSQCSWFN | inactive
37 | SDIGVCSLKICSTIILVANM | inactive
38 | QVGVWRNNGYEYYRGRNLRG | inactive
39 | TVVRNGIKTVYGLVDCVDS | inactive
40 | NNERITWERDIRSRCFPVLV | inactive
41 | RSDNESGNV | inactive
42 | FMIAQGYHMLYLKHLCTSRN | inactive
43 | FDGYCFFYYWLGVWWSTSI | inactive
44 | SFFKNGGELVMSCVSVSPDI | inactive
45 | RVVYLHNSVRLSLDVNPIAV | inactive
46 | KVVFFTALTEPWFSPQFQGL | inactive

Row | Substance | amyloid nucleation score
47 | SATFRSSVTLSRHPVNNLTP | 1.35 ± 0.082
48 | FSSMANNIL | inactive
49 | ENNVRTVHVISWAIFLSTYF | inactive
50 | YEIYQFSYPRFWKYQCNCSS | inactive
51 | VCFDSVAMDNHDYPCVTRYM | inactive
52 | ITTVRAYEALTWNMFWVQCV | inactive
53 | EMVLGWSARFCDK | 1.65 ± 0.088
54 | RPWPYSYTNWDLCWLMAMPN | inactive
55 | SFKDCSVDSWFGSIIG | inactive
56 | GSILWGVNMRFLNITAGCDY | inactive
57 | RSFSECWCWISKLVGYLGVT | inactive
58 | CCIMLTWKRCLNKRLVTTDP | inactive
59 | NDASVLRNSPELSESFRGKW | inactive
60 | IACFMI | inactive
61 | LCFNCMS | 2.74 ± 0.076
62 | GMRCEYMILTFGLSWKLLLI | inactive
63 | GKNKQLS | inactive
64 | SGSLPMRTMLFP | inactive
65 | NSKLRLFWRTGMVHSVVDVS | inactive
66 | DWRMLRGFYLHINCMLSFQG | inactive
67 | KGLVYSELNYYLLSWY | inactive
68 | WVFSWKMHRSKSKYRSKYLP | inactive
69 | DFSNILLGTNQNNAVSAGSG | inactive

Row | Substance | amyloid nucleation score
70 | NYRRTCTVLSDGYFNYIT | inactive
71 | FDVNIPFCSNSFSYHTNSGS | inactive
72 | GRKKWGLSQSCDKLPMGHTS | inactive
73 | SMSTN | inactive
74 | LHITYGSFCTLVFLIIVRWF | inactive
75 | GLSNRTFSMISSLVRDTKRS | inactive
76 | YLMVTVSALPSACCGVCVPW | 1.48 ± 0.1
77 | VKNIGS | inactive
78 | SSSAF | inactive
79 | WTRESLQYTGNSYGALSTFF | inactive
80 | SSDECV | inactive
81 | FKEWVFCMYECE | inactive
82 | TKSYSMVSPIRVLNTDLIY | inactive
83 | AANVESPKIYKWCINKRGMV | inactive
84 | SKPSYFHNFLFDKMSDRLCT | inactive
85 | SISAKVGSSGRLGRSPYRVD | inactive
86 | IMYSYNGRLCGTIELSFPGL | 0.814 ± 0.26
87 | GLDLRTCGCYHSIP | inactive
88 | TGFSVFYSVYRRQGH | 0.912 ± 0.19
89 | YFKVFQVLNLNICYSYRMVN | inactive
90 | LLMYARYSG | 1.52 ± 0.11
91 | VYRQVLRET | inactive
92 | NFGRAQSNACAENVFAIERG | inactive

Row | Substance | amyloid nucleation score
93 | FVESIAVLKLFNTVKWITFF | inactive
94 | DERKPVGSHDGYSYVSVVTR | inactive
95 | FSMLWILSDYLSYSCNLVFY | inactive
96 | YMYELVTSRFKRNQVMCVID | inactive
97 | NTPLWAFPEVLSDHNFN | inactive
98 | KVCVLVDMHSGHTVHWGLMC | inactive
99 | SNRGVADLDLRGLWTARE | inactive
100 | CRVFDYFSLRVYVTVRYSLF | inactive
101 | FSTMKLISMHCRVS | inactive
102 | RMMNKAADNVMNYNCVCCKS | inactive
103 | STWYSFDFRYFLDTIVCHMF | 1.68 ± 0.11
104 | LSTCFTGAFRVSNREKSNVS | 0.059 ± 0.43
105 | IFVGVSYVHFRLEH | 1.8 ± 0.099
106 | LYICTIVYYGQSNRYMFAGQ | inactive
107 | FIYASCDNHKIDKRYVYLLM | inactive
108 | PKISFSGWM | inactive
109 | NDNIDPTRVIQ | inactive
110 | MNCDDAVDWCFII | inactive
111 | ECGWNMFCDRAHMSLGFYSM | inactive
112 | QYELIGSKYVQRFSFQANFS | 2.07 ± 0.074
113 | YPGTASAG | inactive
114 | LARGDYVMKDMVLAHINDLC | inactive
115 | PEYCKAWLRWKPISVYTQVW | inactive

Row | Substance | amyloid nucleation score
116 | KVIRESVKSLRHFKFAWLLS | inactive
117 | KGPRSGLVYGSSDHVFLA | inactive
118 | LPSICVSPI | inactive
119 | FEDLKTDSILYQFSRAYGDW | inactive
120 | GRHKFRMVVIRAVRVSVLEN | inactive
121 | CMYKTFHFDY | inactive
122 | FIDFGIWC | inactive
123 | GLALNWLCG | 0.026 ± 0.43
124 | VGRNECARRMVLRKWWLYLV | inactive
125 | YERWKLVHHGKNMYEGVYRL | inactive
126 | NKNGSHL | inactive
127 | IDCLLLFSIGEVLKSGNNSR | 0.335 ± 0.17
128 | RMIRNDFMITLEWGDSGGYH | 1.28 ± 0.097
129 | DCYMDLSRQFRNRCGLASFY | inactive
130 | TASYSLVVVVENRKSCMVDN | inactive
131 | DTGDCVPGVLSRYLMIWDG | inactive
132 | FLNLNNMGLSYMAVSLVEG | inactive
133 | QMIRVVVFNYDQFFR | 1.47 ± 0.084
134 | LIHVGRFTVRTKL | inactive
135 | VWFNPLCYRNYGMETLVSTK | inactive
136 | GLKKWLFD | inactive
137 | IYPLAKFSLHLVYTDRVSIF | 0.352 ± 0.19
138 | DNPTYRYTICGMTLEHPKEE | inactive

Row | Substance | amyloid nucleation score
139 | RYGTLGDLV | inactive
140 | YFSACTVKKHTSWCADVT | inactive
141 | VRILLRFLVVFRLYLVFC | inactive
142 | MRMHALAVNIGCCYTCVVVT | 0.866 ± 0.099
143 | TNRWSIFTVVLSTMNVASFV | 0.974 ± 0.18
144 | SFHTDTPLMRHYIMRFYNDY | inactive
145 | YNRANYAKRVCTSSVNVETE | 0.294 ± 0.47
146 | YPCLSIGFSCSVLRMNVYLW | 0.368 ± 0.21
147 | SKPLYNSWIPMCLLFKVPPF | inactive
148 | VYYSWVICSMERTKSWSMSS | -0.227 ± 0.75
149 | HLGYPVVLVLLLPSDDSGHL | inactive
150 | VSVLMGAWDLMWMPGKS | 1.08 ± 0.14
151 | PYMITILHFISHATVLNTSV | inactive
152 | LVNEKNIRVEVCIAYACQDS | -0.053 ± 0.33
153 | VTRCCPMWD | -0.702 ± 2.5
154 | RDPWFLSMVVDLFGYLNWVM | 0.338 ± 0.18
155 | SSRRPWIIGSMST | inactive
156 | LWGAYLLNCGNMRYCMYISG | 0.803 ± 0.2
157 | FVMSFAN | inactive
158 | FINFELLRSSSNNV | inactive

— the supplement of paper PMC12042874
